Values of other authors in patent US20230233498A1, “COMPOSITIONS AND METHODS FOR THE TREATMENT OF COVID-19” (PROTHIONE, LLC, priority 2020, published 2023).

Tests used:
Ebola virus (EBOV) = conditions: cells expressing NZAP-Zeo or full-length ZAP
EBOV replicon system = conditions: transient expression

B1: ZAP: zinc finger antiviral protein (protein, UniProt Q7Z2W4 2-902, looked up)
Zinc finger CCCH-type …: ADPEVCCFITKILCAHGGRMALDALLQEIALSEPQLCEVLQVAGPDRFVVLETGGEAGITRSVVATTRARVCRRKYCQRPCDNLHLCKLNLLGRCNYSQSERNLCKYSHEVLSEENFKVLKNHELSGLNKEELAVLLLQSDPFFMPEICKSYKGEGRQQICNQQPPCSRLHICDHFTRGNCRFPNCLRSHNLMDRKVLAIMREHGLNPDVVQNIQDICNSKHMQKNPPGPRAPSSHRRNMAYRARSKSRDRFFQGSQEFLASASASAERSCTPSPDQISHRASLEDAPVDDLTRKFTYLGSQDRARPPSGSSKATDLGGTSQAGTSQRFLENGSQEDLLHGNPGSTYLASNSTSAPNWKSLTSWTNDQGARRKTVFSPTLPAARSSLGSLQTPEAVTTRKGTGLLSSDYRIINGKSGTQDIQPGPLFNNNADGVATDITSTRSLNYKSTSSGHREISSPRIQDAGPASRDVQATGRIADDADPRVALVNDSLSDVTSTTSSRVDDHDSEEICLDHLCKGCPLNGSCSKVHFHLPYRWQMLIGKTWTDFEHMETIEKGYCNPGIHLCSVGSYTINFRVMSCDSFPIRRLSTPSSVTKPANSVFTTKWIWYWKNESGTWIQYGEEKDKRKNSNVDSSYLESLYQSCPRGVVPFQAGSRNYELSFQGMIQTNIASKTQKDVIRRPTFVPQWYVQQMKRGPDHQPAKTSSVSLTATFRPQEDFCFLSSKKYKLSEIHHLHPEYVRVSEHFKASMKNFKIEKIKKIENSELLDKFTWKKSQMKEEGKLLFYATSRAYVESICSNNFDSFLHETHENKYGKGIYFAKDAIYSHKNCPYDAKNVVMFVAQVLVGKFTEGNITYTSPPPQFDSCVDTRSNPSVFVIFQKDQVYPQYVIEYTEDKACVIS
In the case of B1, the EBOV inhibited (Ebola virus (EBOV)) is given as “up to 4 log units” and the “decreased activity of an EBOV replicon system” value (EBOV replicon system) is given as “up to 95%”.
